In patent publication US20210317499A1 one finds Kd, koff and kon data, which are given here for 1 substance.

The Kd is the concentration at which binding is half-saturated. The term koff denotes the rate constant with which the complex falls apart. The kon is the second-order rate constant of association.

For the experiment, the target named is His-tagged FcγRIIIa recombinant protein (UniProt P08637). In words: SPR (Biacore X100); His-tagged FcγRIIIa captured on anti-His antibody CM5 chip, antibody as analyte; 1:1 Langmuir fit. For orientation: SPR reads the build-up and loss of mass on a sensor chip optically.
Chain of UniProt P08637 (P08637 17-208 limits assumed): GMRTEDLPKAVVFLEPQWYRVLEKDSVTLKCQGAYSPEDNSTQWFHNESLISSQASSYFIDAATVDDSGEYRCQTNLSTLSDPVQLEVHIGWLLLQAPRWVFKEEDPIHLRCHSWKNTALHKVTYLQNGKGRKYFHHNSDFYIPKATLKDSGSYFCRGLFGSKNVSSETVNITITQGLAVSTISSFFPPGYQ

Take “GAZYVA (obinutuzumab), commercial afucosylated anti-CD20 antibody”: the Kd turned out to be 0.0399 µM, the koff came to 0.0069 s⁻¹ and the kon turned out to be 173000 M⁻¹ s⁻¹.
